Measured values taken from US20230279130A1.

Biological target: full length human CCR8 (hCCR8) (human) (UniProt P51685)

- IC50, inhibition of chemotaxis of hCCR8-transfected P815 cells to 1 nM CCL1 (intact IgG1, Cell Titer Glo): 6.53 ng/mL
B1: benchmark anti-CCR8 antibody 4A19 (Bristol Myers Squibb) (antibody, from another filing, IgG1, V domains shown)
VH: QVQLVQSGAEVKKPGASVKVSCKASGYTFTDSEMHWVRQATGQGLEWMGAIQPETGGTAYNQKFKARVTMTRDTSISTAYMELSSLRSEDTAVYYCARRRRNFDYWGQGTLVTVSS
VL: DIVMTQTPLSLSVTPGQPASISCRSSQSLFHSSGNTYLHWYLQKPGQPPQLLIYKVSNRFSGVPDRFSGSGSGTDFTLKISRVEAEDVGVYYCSQSTHVPFTFGQGTKLEIKR
